Target: S107-encoded IgG (monoclonal antibody bound by the Fab-binding site of SpA)
Experiment: ELISA

monomeric domain D′ of SpA (domain or fragment)
Fab-binding (relative activity in the inhibition immunoassay): 0.01 M
